Data taken from article PMC4144707 (Biochemistry, 2014).
Where no end group is shown, it is not given here.

Target: the molecule itself
Assay: deuterium MAS solid-state NMR

Protein	binding result
RRAGSVYAGILSYGVGFFLFILVVAAVTLCRLRSPPKKGLG-NH2 (also: (5,5,5-d3) leucine at 385 or 388) [FGFR3 TM–JM (WT) peptide, FGFR3 (369–407) with two N-terminal arginines]	binds
RRAGSVYAGILSYGVGFFLFILVVEAVTLCRLRSPPKKGLG-NH2 (also: (5,5,5-d3) leucine at 385 or 388) [FGFR3 TM–JM (A391E) peptide, FGFR3 (369–407) with two N-terminal arginines]	binds
